21 sequences from the DeepSol protein solubility set can be followed below.

A short description of this data set: soluble on expression in E. coli; label from the status in PepcDB or PDB records.
For the sequence “MPELDESASFAELLEAHAGGTRNVRPGDRISAAIVAITDDSVFVATGSKVDGVIDRRELEEADGSLPYAVGDRVDLYVTAVNGQEIRLSKGLSGQGGAAVLEEARDSGVPVEGRVTGTCKGGYNVDVLRKRAFCPGSQIDLHQLEDAESVVGQTFQFLVTRVEQHGRNIVVSRRALLERERDAALATFLEGVKEGDVLEGTVTRLAPFGAFVEIAPGVDGMVLEHHHHHH”, the “soluble on expression in E. coli” value is “not soluble”.

For the sequence “MNNTPKLKLGIVAVSRDCFPMELSENRRKAVVDAYNGEIFECLTTVENEKDMRKALKEVKSAGVNALVVYLGNFGPETPETLIAKEFDGPVMFAAAAEERGDNLVNGRGDAYCGMLNASYNLALRNINAYIPEYPVGTASDVANMINEFVPVATALIGLKNLKIISFGPRPQDFLACNAPIKQLYNLGVEIEENSELDLFASFNEHENDSRIPDVVKDMEEELGEGNKMPGILPKLAQYELTLLDWAEEHKGSREYVVFANKCWPAFQTQFGCVPCYVNSRLTARGIPVSCEVDIYGALSEYIGTCVSQDVVTLLDINNTVPKDMYESEIKSKFNYTLKDTFMGFHCGNTAACKLTSGTMKNQMIMARALEPNQEPNITRGTLEGDIVPGEITFFRLQSNADSELTAYVAEGEVLPVKTRSFGSIGVFAIPQMGRFYRHVLIENRFPHHGAVAFGHFGKAIYNLFRYLGVKEVGFNRPKEMLYKTENPFELEHHHHHH”, the “soluble on expression in E. coli” value is given as “soluble”. Then “MAHHHHHHMKGDAEVVDIGSEVLSVTFSNSGRRLAVLTMRQEISVYETVVPTEPIIIKTFQTSFDAAGGWNKTVGPRSANYNARFNVIAFSPEGEKIVAGGDSKWIVMYHATQGYMLKKWPVTTNQDVQGAEEQYQWRQMTEAGHVDDIDVDDADIHLRRGKIMEMPGSRHRHFATGKRQTALTARTMDLAFSCTGTEFVAATTDGLLMFSTRVARPKFQPLQLSANITTQQVRDQLDRGEPVMALMGAMKLGDKMLGVECLRRMPRDAIPVAVSSVPSVLFPLLVQWVSTEVEESRGIEQALLWAQSLMLHSNECTGGFAQERSAVIPALKVLQRGLQQHRALTDLAKENYFSLRYIIDMTKMQKDILQPAATVE”, with “not soluble”. Then “MGSDKIHHHHHHMLPTLDGLPFHIAKAQGIYDSLGLDLTILSFNSAYDRDAAFQFKSMDGMITDYPSAVTLQAIHHTDLGIILKHDGYFCFIVSKESGINQLQELKEKNIAVSHNTIIEYATGQLLNKAGISQAEVNKPEIAQLPLRLQMLQYDQIDASFLPDPAASIAMNARHRSLISTQELGIDFTVTAFSREAINEKRREIELLITGYNLGIDYIKMHPQKEWKQVLIEIGVPENLTGLIALPVYRKAERPSADALDKAVTWLKTNNRIPQTYSGYKSLIDTTFIKTNSTTIK”, with “not soluble”; and “MQKTLSAIFLFTTLSANAAPYIGLELGIGTANHSFETNYQSDAVSLNPNMEDMFLGGLIGYKFNDNFSFEINYSSYKLEDQYSKFIGIESLNNQQYRKEHEWSSEIEAKQLALISVYSYPIHQQLKTNIKVGVTHTQYEAYSGKYEELELLLNDDIEIRKALLETGLKKNRFGALFSLGLDYNLIPELSVGTELRYQFDKYNDVLSISLNSKYYF”, with “not soluble”; and “MSSVELPQVMDDNLISRRKKIMQSIEDIRGKKAEIAQALRELGVGKPQENESVKEDMKLLLAAFDSISAQEAQYMDILKTIVGIHEQATLDIAKDFEKKIEDDAQKLKEQKEKQEEDATEEDENAEKTPEEQANSEVIAELQEALLELKQVSEAAVAASELNEKLVERLQLTKRKKSAMMEVRAKKAKDLDDVATKVRAEVMERINKMAALKKTTTKQEKELKELQKQCLQLGLQLGTDENREIDPAAEEALLDDNQRVPVIVETQEKPDLNDEEKEKRREEIRENIKKEMEKKEQVNTLIREKLASMNARRKRLQEIRKMLEKQEHEKEKLDAAISNSAVAVQNDGEGIALTPETPRPSQEDEAEAPAAAETTVVSAPVAASEDIDEEEDGEVTEKSLDDILENARANLSNLTAMRERLEHIKETGGADLNEDDLTLLERLDNVALEEDEKLTPTP”, with “soluble”. The same measure for “MGSDKIHHHHHHMKVNLDYLGRLFTENELTEEERQLAEKLPAMRKEKGKLFCQRCNSTILEEWYLPIGAYYCRECLLMKRVRSDQTLYYFPQEDFPKQDVLKWRGQLTPFQEKVSEGLLQVVDKQKPTLVHAVTGAGKTEMIYQVVAKVINAGGAVCLASPRIDVCLELYKRLQQDFSCGIALLHGESEPYFRTPLVVATTHQLLKFYQAFDLLIVDEVDAFPYVDNPMLYHAVKNSVKENGLRIFLTATSTNELDKKVRLGELKRLNLPRRFHGNPLIIPKPIWLSDFNRYLDKNRLSPKLKSYIEKQRKTAYPLLIFASEIKKGEQLAEILQEQFPNEKIGFVSSVTEDRLEQVQAFRDGELTILISTTILERGVTFPCVDVFVVEANHRLFTKSSLIQIGGRVGRSMDRPTGDLLFFHDGLNASIKKAIKEIQMMNKEAGL”: “not soluble”; for “MGSDKIHHHHHHMQANKNIQKLTPYLSIPHKIWNSSQSNILKLDWNEATIPPSPYVIESIKKFLVNGNLNWYPNTKNLYLLDKIAEYTKQINSSFVELFEGSDSAHECIIDVFLDKCDKIGIVSPTYDNFRSRANGVGIETISFTLDDNFNLDFDSLEYFIHEKRIKLLYLCNPNNPTGKSYNIQKIKSLIINNPNVMFIIDEAYYEFTSQSVCDLVEQCNNLIITRTFSKAFALASFRIGYIISHPENIESINKLRNPKSVPMLSQIAANAALEDLQYMRDYVDEVSCARMEFVKFLNTLTTGGGGIFNDSVANFVLIQNENISLFVGFLEKEGIFIRNYSHLISKNCRISIGTRNQMSYVAEKIQEFAKKQGGFHLV”: “not soluble”. In the case of “MSVWLLQMKTNAIITDITKSIVKMDRILVYRHTNPDPDAIGAQFGLVALLKAAYPEKLVVAMAPVPGHLAWIDTTDEQLVTPQATDLVIAVDCANHERLAGELPTGAFVIKIDHHPNHDPYGQLNWVDETYSSCSEMIYELAQAGCFTVTAAVATKLYAGIIGDTVRFSTPETSTRTLKIASALAATDIDIATISHHEMDLTPALSKLYGYVLSEQTIEPSGLAHVVLPQRIFSDLSLEYGDEDALVPLPGNLTTVKVWLFFIETPQGQYRVHFRSKAINVNAVAKAFNGGGHPLASGAFVPDLATVGQVIEQMQAQVLAATAVDLEHHHHHH”, the “soluble on expression in E. coli” value is on record as “not soluble”.

For the sequence “MQQERTVKVSKYLSKHLRHQPERIGLTPDEGGWVEIDALVAAAAAHGFPFTRQELDHVVATNDKRRFAVEGTRIRASQGHSIAVDLRLPVATPPPYLYHGTVARHLEAIRAEGLRPMNRHDVHLSPDRETATRVGARRGRPVVLPVDAATMHRDGHVFHVSANGVWLTQHVPSRYLRFPAPHLEHHHHHH”, the “soluble on expression in E. coli” value is “not soluble”. The same measure for “MPHSQTSAPRDSLAGVRLARGASPWLLPTVATAAVSLLRARRSGTAKAVAVPATALAAGMLWFFRDPEREITQGRVVSPADGVVQSIMPWKDGRTRVAIFMSPLNVHVNRAPLAGTVTSVEHVPGGFVPAFNKESENNERVVWHFDTELGDIEMIQIAGAVARRIVPYVPQGTKVEQGERVGLIRFGSRVDLYLPEGVEVDVEVGQKTVAGVTRIDRDLEHHHHHH”: “not soluble”. Then “VEADSNIGYNATFGYQKPMGGAGAYWGMEFGLGSRGFKADEMKCIAHNIQYSPFTFGWKIGVADNLSIDPHLGVFASYDYTSKMKESGESISWGDFADYLEVDYNHFDAGMNIGVGLWYDRFNLDFTYQRGFIDVFSDLDGIKTSNFMIRLGIAF”, with “not soluble”. The same measure for “MGSDKIHHHHHHMIKVSQLTVRYGELKAVEDLSLEVQRGEILSLVGPSGCGKTTVVKAILGLIPYEGKIEIFTSRLGYCPQKDVLFDWMTVYENAVLPLVLRKEQPPSNIKELFERFGLSGFEEKRPYQLSGGMRQKLSLLRAVLSGEELLVLDEPFSSVDAYTRKKLQIWLSEIVHRMKSTVVLITHDVEEAVFLSDRILILSDRPARILKEIRVPFSKPRTIKTFSDPRFSEIEEEVLETLMNQP”: “not soluble”. As for “MLQLKNIGILSTYNSKTDSFDYLKNCNIDIENGIIIGLGDSNHNGDQVIDCNHKLVTPGFVDAHTHPVFVNGREKEFIERISGKSYQEISNKGGGINSSIIRVREIDEIDLLDLVIKRMDDFIYMGTTTIEAKTGYGLNTDSELKSLRVLENAHNKHKIDIFPTFLGAHSVPNEYNGDSNAYTDLLCNEMIPAVAKQGIAKFCDVFCEEEYFDCNQSRKILEKAVEYGLIPRMHTDEFSSIGGVKIASKINAISADHLMEISDEDIELLANSNTIAILLPGTTFFLGKTTYAPARKLIDKGVHVSIATDFNPGSCHIKSMPFIIGLSCIYLGLSIEEALKAATWSGACAINEQERIGSIEVGKKADLIIWDLDTIDQIPYNIINAPIVNVIKDGVPLITLD”, the “soluble on expression in E. coli” value is “soluble”. With “GSMTGKSVKDVDRYQAVLANLLLEEDNKFCADCQSKGPRWASWNIGVFICIRCAGIHRNLGVHISRVKSVNLDQWTQEQIQCMQEMGNGKANRLYEAYLPETFRRPQIDPAVEGFIRDKYEKKKYMDRSLDINA”, the “soluble on expression in E. coli” value is “soluble”.

“MGVDNFSTTKKMFTWEVPGERVITLMTAGNLATTQALISLLEERSKTPSERSPSILERPTMFEVARLVGATLKEVIADTAGTGQVASSQFKASVIVGGQVKGGLPTLFLIYPEGNFIEVTEDSPFFQIGEAKYGKPILVRAYDPDLSFEDTIRLLMVSFDSTIKANLSVGLPLDLQVYANDSFAIKEQSRVEADDAYFQSISERWGDALRKALSDLPPYKSLLEHHHHHH”: the “soluble on expression in E. coli” value was “not soluble”. Consider “MTEKTIEFEGIEPVIIFGPYDSYLKKVREAFPDIRINARGAKITIGGDEPDLTAIEKIFREIIFLADQHGEVLENDVNALVSLALSPVSHPSAALSGDKDVIVETKDYVVKAKTDGQRRMVAEAAGNDIVFAIGPAGTGKTYTAVAIAVAAWKAKKIKRIVLARPAVEAGESLGFLPGDLAQKIDPYLRPLYDALQDMLTAEKLKFLTERRVIEIVPLAYMRGRTLNNSFIILDEAQNASSKQMMMCLTRLGVNSKAIITGDVTQVDLPKEMESGLMNAQKILKGIKGISFVFLDKSDVVRHRLVKDIINAYEHHEEGLRKGAPKEAEL”, for which the “soluble on expression in E. coli” value was “not soluble”. Then “MSDVDVFVIDDDFDPLADLSLDDGERDDAEADYLPPIPDADKSVVPPVVPLSATERIEKLLAGIPGQQFRLLHAVEFCTEPKTMDEAVADLDAAYPNTTSVYGSAQVVQLLERDGALERIVDEDAAHAAAGDAADTPAEDEGFISVTPAPPCRYRATQAGLDAVAAHVNEGLVAERISEDERYLPIFQRVLEMCAREGGCPTKELDQAVDGDPLCQEPRRFCGFFRGKLEETGAIEWRDAWTITDLGRSVLASGLFAAASPSER”, with “not soluble”.

For “MAQEDVTAVATNGAGPVETHLVFTEFKQMLLVEAQKVGDAVTFYKSAFGAIESGHSLYPKRKLDQELPHVLSSELNLAGSSFVVCDVSSLPGFSTAKSEGSGVTFLLGTKDAEAAVAKAVDAGAVKVEVTEAEVELGFKGKVTDPFGVTWIFAEKKTVITDENKEV”, the “soluble on expression in E. coli” value is “soluble”. Then “MMAVENAVDYPISVRLPSYVVEKIDELVKKRKFRSRSDFIKFAVTFALGQIMMEEARERAKNEPEELEKERKEAWMRLRAGDFSKEDEETLELLKKVDARYKRLGGRS”, with “soluble”; and “MGSSHHHHHHSSGLVPRGSHMASGMAPGGYVAPKAVWLPAVKAKGLEISGTFTHRQGHIYMEMNFTNKALQHMTDFAIQFNKNSFGVIPSTPLAIHTPLMPNQSIDVSLPLNTLGPVMKMEPLNNLQVAVKNNIDVFYFSCLIPLNVLFVEDGKMERQVFLATWKDIPNENELQFQIKECHLNADTVSSKLQNNNVYTIAKRNVEGQDMLYQSLKLTNGIWILAELRIQPGNPNYTLSLKCRAPEVSQYIYQVYDSILKN”, with “soluble”.
